This is an account of results in US11666658B2, “Rifamycin analogs and antibody-drug conjugates thereof” (Regeneron Pharmaceuticals, Inc., priority 2018, dated 2023).

The target of one experiment is T1, His9-hMSR1 (Homo sapiens, UniProt P21757).
T1 construct: human MSR1 extracellular domain expressed with a N-terminal nonahistidine tag; purchased R&D Systems 2708-MS
T1 sequence (P21757 77-451 limits assumed): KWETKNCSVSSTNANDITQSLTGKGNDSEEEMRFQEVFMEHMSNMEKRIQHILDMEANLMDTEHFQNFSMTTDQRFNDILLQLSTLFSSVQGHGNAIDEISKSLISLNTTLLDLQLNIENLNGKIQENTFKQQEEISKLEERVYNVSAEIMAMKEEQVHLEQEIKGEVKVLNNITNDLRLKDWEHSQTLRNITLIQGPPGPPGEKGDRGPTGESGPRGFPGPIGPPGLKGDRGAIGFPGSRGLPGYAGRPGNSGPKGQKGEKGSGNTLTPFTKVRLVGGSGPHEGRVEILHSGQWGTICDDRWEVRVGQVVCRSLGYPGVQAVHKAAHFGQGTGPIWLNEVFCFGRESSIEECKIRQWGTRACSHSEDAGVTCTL
The experiment in a line: Cross-competition between anti-MSR1 antibodies (OCTET bio-layer interferometry). It is filed as binding. The note with it: label = first mAb (mAb-1) on His9-hMSR1 captured with anti-Penta-His Octet biosensors; value = competing mAb-2. The procedure: Binding competition between different anti-MSR1 antibodies was assessed using a real time, label-free bio-layer interferometry assay on an OCTET® HTX biosensor platform (Pall FortéBio Corp., Menlo Park, Calif.). The experiment was performed at 25° C. in 10 mM HEPES, 150 mM NaCl, 3 mM EDTA, 0.05% v/v Surfactant Tween-20, and 1 mg/mL BSA, pH 7.4 (HBS-EBT) buffer with the plate shaking at the speed of 1000 rpm.
To assess whether different antibodies are able to compete with one another for binding to their respective epitopes on the recombinant human MSR1 extracellular domain expressed with a N-terminal nonahistidine tag (SEQ ID NO: 688) (His9-hMSR1; R&D Systems, Cat #2708-MS), around […] of His9-hMSR1 was first captured onto anti-Penta-His antibody coated OCTET® biosensor tips (“Penta-His” disclosed as SEQ ID NO: 690) (Pall FortéBio Corp., #18-5122) by submerging the biosensor tips for 45 seconds into wells containing a […] solution of His9-hMSR1. The antigen-captured biosensor tips were then saturated with a first anti-MSR1 monoclonal antibody (subsequently referred to as “mAb-1”) by immersion into wells containing a […] solution of mAb-1 for 4 minutes. The biosensor tips were then submerged into wells containing a […] solution of a second anti-MSR1 monoclonal antibody (subsequently referred to as “mAb-2”) for 4 minutes. All of the biosensor tips were washed in HBS-EBT buffer in between each step of the experiment. The real-time binding response was monitored during the course of the experiment and the binding response at the end of each step was recorded. […] Table 17 explicitly defines the relationships of antibodies competing in both directions, independent of the order of binding.

Experiment [1] has as its target T2, MSR1-mediated DiI-OxLDL uptake in HEK293.Myc.hMSR1 cells (Homo sapiens, UniProt P21757).
T2 construct: expressed in transfected cells; host or cells: HEK293 (lentiviral transduction, hygromycin selection)
T2 sequence (P21757 1-451): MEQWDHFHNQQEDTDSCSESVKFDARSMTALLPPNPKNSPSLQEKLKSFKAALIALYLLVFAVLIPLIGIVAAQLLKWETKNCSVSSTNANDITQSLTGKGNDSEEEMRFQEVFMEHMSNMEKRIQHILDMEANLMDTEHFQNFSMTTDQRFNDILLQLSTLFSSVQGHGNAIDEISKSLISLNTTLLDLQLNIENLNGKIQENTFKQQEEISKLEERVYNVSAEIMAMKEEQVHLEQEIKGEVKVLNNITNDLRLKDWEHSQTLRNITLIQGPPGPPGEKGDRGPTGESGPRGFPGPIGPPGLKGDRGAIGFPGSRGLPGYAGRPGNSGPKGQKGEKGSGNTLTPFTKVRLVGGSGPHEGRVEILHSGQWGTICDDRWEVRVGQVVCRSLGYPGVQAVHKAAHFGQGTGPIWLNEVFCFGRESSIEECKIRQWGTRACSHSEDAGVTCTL
Put plainly: Ligand uptake assay, DiI-OxLDL. It is filed as cell-based. The protocol:
The resulting cell line, referred to here as “HEK293.Myc.hMSR1”, was selected and maintained in DMEM containing 10% FBS, NEAA, penicillin/streptomycin, L-glutamine, and 100 μg/mL hygromycin.
After 30 minutes, either oxidized or acetylated low-density lipoprotein (LDL) labeled with 1,1′ dioctadecyl-3,3,3′,3′-tetramethylindocarbocyanine perchlorate (referred to as “DiI-OxLDL” or “DiI-AcLDL,” respectively) was added to the cells at a constant concentration of 10 μg/mL. […] Results were analyzed using nonlinear regression (4-parameter logistics) with the Prism 7 program to obtain EC50 and IC50 values. The percentage of inhibition was calculated with the Relative Fluorescent Unit (RFU) values by using the following equation: […]
In the equation, “RFUBaseline” is the fluorescence value from the cells treated with 10 μg/mL ligand without antibodies, “RFUInhibition” is the minimum fluorescence value with for a particular antibody with 10 μg/mL ligand, and “RFUBackground” is the fluorescence value from cells without any ligand or antibodies.

B1: H1H27729P-N297Q: anti-MSR1 antibody; "Antibody H1H27729P-N297Q showed no inhibition of DiI-OxLDL uptake" (antibody, V domains shown)
VH: QVQLVESGGGLVKPGGSLRLSCAASGFIFSDYYMSWIRQAPGKGLEWVSYISSSGTTIYGDSVKGRFTMSRDNAKNSLYLQMNSLRAEDTAVYYCARNYALFDYWGQGTLVTVSS
VL: DIQMTQSPSSLSASVGDRVTITCQASQDISKYLNWYQQKPGKAPKLLIYYTSNLETGVPSRFSGSGSGTDFTFTISSLQPEDIATYYCHQSDYLPFTFGPGTKVDIKR
On to B1, for which, in the experiment with His9-hMSR1, the “mAb-2 antibodies which Compete with mAb-1” value is on record as “Data Inconclusive**”. Moreover, the “inhibition of DiI-OxLDL uptake (in words)” value in experiment [1] is listed as “no inhibition of DiI-OxLDL uptake”. Besides, the “IC50, Dil-Oxidized LDL” value in experiment [1] (10 μg/mL DiI-OxLDL) is recorded as “no inhibition”. The “% Inhibition, Dil-Oxidized LDL” value in experiment [1] (maximum inhibition of uptake, 10 μg/mL DiI-OxLDL) was “no inhibition”.
